Key:
[1] = biological target: full-length VAMP2 (mouse His6-SUMO-VAMP2, residues 1-116) (mouse) (UniProt P63044)
[2] = biological target: Syntaxin1 (rat) (UniProt P32851)
Sequence of Syntaxin1 (rat) (P32851 whole entry): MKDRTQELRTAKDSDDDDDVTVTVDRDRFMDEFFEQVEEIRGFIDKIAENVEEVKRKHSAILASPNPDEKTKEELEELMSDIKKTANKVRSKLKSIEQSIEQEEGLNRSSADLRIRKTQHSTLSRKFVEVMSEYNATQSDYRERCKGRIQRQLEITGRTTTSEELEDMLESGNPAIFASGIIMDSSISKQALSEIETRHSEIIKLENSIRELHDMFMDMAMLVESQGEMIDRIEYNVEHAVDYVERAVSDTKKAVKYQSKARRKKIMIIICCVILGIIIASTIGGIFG

Sequence of full-length VAMP2 (mouse His6-SUMO-VAMP2, residues 1-116) (mouse) (P63044 whole entry, the tested form may be a part): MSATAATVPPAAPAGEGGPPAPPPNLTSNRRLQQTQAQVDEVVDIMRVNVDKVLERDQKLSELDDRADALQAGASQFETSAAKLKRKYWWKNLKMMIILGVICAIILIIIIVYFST

Row | single-vesicle fusion assay with 500 nM DHG: fraction of immobile clamped vesicles that fused upon 100 µM Ca2+ (wild type ~90%) [1] [%] | single-vesicle fusion assay with 500 nM DHG: fraction of immobile clamped vesicles that fused upon 100 µM Ca2+ (wild type ~90%) [2] [%] | Substance
1 | 20 |  | Munc13 D1358K (from UniProt Q62768 529-1407; Q62768 1453-1735) (domain or fragment)
2 |  | 20 | Munc13 N1128A/F1131A (from UniProt Q62768 529-1407; Q62768 1453-1735) (domain or fragment)

Source: publication PMC10450444
